From IntAct's records for PubMed 20059542

B1: 26S proteasome non-ATPase regulatory subunit 4 (Homo sapiens), P55036 (parent)
chain: MVLESTMVCVDNSEYMRNGDFLPTRLQAQQDAVNIVCHSKTRSNPENNVGLITLANDCEVLTTLTPDTGRILSKLHTVQPKGKITFCTGIRVAHLALKHRQGKNHKMRIIAFVGSPVEDNEKDLVKLAKRLKKEKVNVDIINFGEEEVNTEKLTAFVNTLNGKDGTGSHLVTVPPGPSLADALISSPILAGEGGAMLGLGASDFEFGVDPSADPELALALRVSMEEQRQRQEEEARRAAAASAAEAGIATTGTEDSDDALLKMTISQQEFGRTGLPDLSSMTEEEQIAYAMQMSLQGAEFGQAESADIDASSAMDTSEPAKEEDDYDVMQDPEFLQSVLENLPGVDPNNEAIRNAMGSLASQATKDGKKDKKEEDKK
B2: DNA damage-inducible protein 1 (Saccharomyces cerevisiae), P40087 (parent)
chain: MDLTISNELTGEIYGPIEVSEDMALTDLIALLQADCGFDKTKHDLYYNMDILDSNRTQSLKELGLKTDDLLLIRGKISNSIQTDAATLSDEAFIEQFRQELLNNQMLRSQLILQIPGLNDLVNDPLLFRERLGPLILQRRYGGYNTAMNPFGIPQDEYTRLMANPDDPDNKKRIAELLDQQAIDEQLRNAIEYTPEMFTQVPMLYINIEINNYPVKAFVDTGAQTTIMSTRLAKKTGLSRMIDKRFIGEARGVGTGKIIGRIHQAQVKIETQYIPCSFTVLDTDIDVLIGLDMLKRHLACVDLKENVLRIAEVETSFLSEAEIPKSFQEGLPAPTSVTTSSDKPLTPTKTSSTLPPQPGAVPALAPRTGMGPTPTGRSTAGATTATGRTFPEQTIKQLMDLGFPRDAVVKALKQTNGNAEFAASLLFQ
B3: Proteasomal ubiquitin receptor ADRM1 (Homo sapiens), Q16186 (parent)
chain: MTTSGALFPSLVPGSRGASNKYLVEFRAGKMSLKGTTVTPDKRKGLVYIQQTDDSLIHFCWKDRTSGNVEDDLIIFPDDCEFKRVPQCPSGRVYVLKFKAGSKRLFFWMQEPKTDQDEEHCRKVNEYLNNPPMPGALGASGSSGHELSALGGEGGLQSLLGNMSHSQLMQLIGPAGLGGLGGLGALTGPGLASLLGSSGPPGSSSSSSSRSQSAAVTPSSTTSSTRATPAPSAPAAASATSPSPAPSSGNGASTAASPTQPIQLSDLQSILATMNVPAGPAGGQQVDLASVLTPEIMAPILANADVQERLLPYLPSGESLPQTADEIQNTLTSPQFQQALGMFSAALASGQLGPLMCQFGLPAEAVEAANKGDVEAFAKAMQNNAKPEQKEGDTKDKKDEEEDMSLD
B4: 26S proteasome non-ATPase regulatory subunit 4 (Homo sapiens), P55036 (parent)
chain: B1 chain
partner: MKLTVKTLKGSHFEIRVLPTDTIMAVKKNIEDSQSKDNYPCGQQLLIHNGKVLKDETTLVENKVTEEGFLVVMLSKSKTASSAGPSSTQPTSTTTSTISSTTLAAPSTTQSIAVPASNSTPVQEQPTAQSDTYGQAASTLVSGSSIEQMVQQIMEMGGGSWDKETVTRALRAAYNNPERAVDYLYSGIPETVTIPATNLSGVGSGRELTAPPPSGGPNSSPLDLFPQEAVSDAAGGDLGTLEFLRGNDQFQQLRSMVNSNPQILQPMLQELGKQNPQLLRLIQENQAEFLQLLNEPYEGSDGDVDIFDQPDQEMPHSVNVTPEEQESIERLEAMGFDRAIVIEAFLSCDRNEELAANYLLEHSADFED

Variants of: B1
Settings: with ubql1_human UBQLN1, Q9UMX0

| Variant | effect of a mutation on the interaction |
| --- | --- |
| I287N;A288N;Y289N;A290N;M291N | disrupting interaction strength |

Variants of: B1
Settings: with ubql2_human UBQLN2, Q9UHD9

| Variant | effect of a mutation on the interaction |
| --- | --- |
| I287N;A288N;Y289N;A290N;M291N | disrupting interaction strength |

Variants of: B1
Settings: with dsk2_yeast DSK2, P48510

| Variant | effect of a mutation on the interaction |
| --- | --- |
| I287N;A288N;Y289N;A290N;M291N | with no effect |

Variants of: B1
Settings: with rd23b_human RAD23B

| Variant | effect of a mutation on the interaction |
| --- | --- |
| I287N;A288N;Y289N;A290N;M291N | disrupting interaction strength |

Variants of: B2
Settings: with ubc_human UBC

| Variant | effect of a mutation on the interaction |
| --- | --- |
| L401A;G402A | disrupting interaction strength |

Variants of: B2
Settings: with ubc_human UBC
Remark: another data set of the same source

| Variant | effect of a mutation on the interaction |
| --- | --- |
| L401A;G402A | decreasing interaction strength |

Variants of: B3
Settings: with ubql2_human UBQLN2, Q9UHD9

| Variant | effect of a mutation on the interaction |
| --- | --- |
| L56A | disrupting interaction |

Variants of: B3
Settings: with dsk2_yeast DSK2, P48510

| Variant | effect of a mutation on the interaction |
| --- | --- |
| L56A | disrupting interaction |

Variants of: B3
Settings: with ubc_human UBC

| Variant | effect of a mutation on the interaction |
| --- | --- |
| L56A | decreasing interaction |

Variants of: B3
Settings: with ubql2_human UBQLN2, Q9UHD9
Remark: another data set of the same source

| Variant | effect of a mutation on the interaction |
| --- | --- |
| F76R | disrupting interaction |

Variants of: B3
Settings: with dsk2_yeast DSK2, P48510
Remark: another data set of the same source

| Variant | effect of a mutation on the interaction |
| --- | --- |
| F76R | disrupting interaction |

Variants of: B3
Settings: with ubc_human UBC
Remark: another data set of the same source

| Variant | effect of a mutation on the interaction |
| --- | --- |
| F76R | decreasing interaction |

Variants of: B3
Settings: with ubql1_human UBQLN1, Q9UMX0

| Variant | effect of a mutation on the interaction |
| --- | --- |
| D79N | decreasing interaction |

Variants of: B3
Settings: with dsk2_yeast DSK2, P48510
Remark: another data set of the same source

| Variant | effect of a mutation on the interaction |
| --- | --- |
| D79N | disrupting interaction |

Variants of: B3
Settings: with ubc_human UBC
Remark: another data set of the same source

| Variant | effect of a mutation on the interaction |
| --- | --- |
| D79N | decreasing interaction |

Variants of: B3
Settings: with ubql2_human UBQLN2, Q9UHD9
Remark: another data set of the same source

| Variant | effect of a mutation on the interaction |
| --- | --- |
| F98R | disrupting interaction |

Variants of: B3
Settings: with dsk2_yeast DSK2, P48510
Remark: another data set of the same source

| Variant | effect of a mutation on the interaction |
| --- | --- |
| F98R | disrupting interaction |

Variants of: B3
Settings: with ubc_human UBC
Remark: another data set of the same source

| Variant | effect of a mutation on the interaction |
| --- | --- |
| F98R | decreasing interaction strength |

Variants of: B3
Settings: with ubc_human UBC
Remark: another data set of the same source

| Variant | effect of a mutation on the interaction |
| --- | --- |
| F98R | decreasing interaction |

Variants of: B4
Settings: with rd23a_arath RAD23A

| Variant | effect of a mutation on the interaction |
| --- | --- |
| L216N;A217N;L218N;A219N;L220N | with no effect |
| L216N;A217N;L218N;A219N;L220N;I287N;A288N;Y289N;A290N;M291N | disrupting interaction strength |
| I287N;A288N;Y289N;A290N;M291N | disrupting interaction strength |
